The text below walks through data of PMC5788269, “Architecture of eukaryotic mRNA 3′-end processing machinery” (Science (New York, N.y.), 2017).

B1: Fip1 (recombinant, polymerase module) (natural protein, yeast, UniProt P45976 1-327, looked up)
chain: MSSSEDEDDKFLYGSDSELALPSSKRSRDDEADAGASSNPDIVKRQKFDSPVEETPATARDDRSDEDIYSDSSDDDSDSDLEVIISLGPDPTRLDAKLLDSYSTAATSSSKDVISVATDVSNTITKTSDERLITEGEANQGVTATTVKATESDGNVPKAMTGSIDLDKEGIFDSVGITTIDPEVLKEKPWRQPGANLSDYFNYGFNEFTWMEYLHRQEKLQQDYNPRRILMGLLSLQQQGKLNSANDTDSNLGNIIDNNNNVNNANMSNLNSNMGNSMSGTPNPPAPPMHPSFPPLPMFGSFPPFPMPGMMPPMNQQPNQNQNQNSK
notes: Fip1, yeast; present in the four-subunit complex but not visible in the cryo-EM map; source: overexpressed in insect cells, purified as part of the polymerase module
B2: Yth1 (recombinant, polymerase module) (natural protein, yeast)
chain: SLIHPDTAKYPFKFEPFLRQEYSFSLDPDRPICEFYNSREGPKSCPRGPLCPKKHVLPIFQNKIVCRHWLRGLCKKNDQCEYLHEYNLRKMPECVFFSKNGYCTQSPDCQYLHIDPASKIPKCENYEMGFCPLGSSCPRRHIKKVFCQRYMTGFCPLGKDECDMEHPQFIIPDEGSKLRIKRDDEINTRKMDEEKERRLNAIINGEV
notes: Yth1, yeast; ordered in the cryo-EM map: residues 1 to 94; zinc fingers 3 to 5 (residues 95 to 208) not visible; source: overexpressed in insect cells, purified as part of the polymerase module
B3: Pap1 (recombinant, polymerase module) (enzyme, yeast, UniProt P29468 1-568, looked up)
chain: MSSQKVFGITGPVSTVGATAAENKLNDSLIQELKKEGSFETEQETANRVQVLKILQELAQRFVYEVSKKKNMSDGMARDAGGKIFTYGSYRLGVHGPGSDIDTLVVVPKHVTREDFFTVFDSLLRERKELDEIAPVPDAFVPIIKIKFSGISIDLICARLDQPQVPLSLTLSDKNLLRNLDEKDLRALNGTRVTDEILELVPKPNVFRIALRAIKLWAQRRAVYANIFGFPGGVAWAMLVARICQLYPNACSAVILNRFFIILSEWNWPQPVILKPIEDGPLQVRVWNPKIYAQDRSHRMPVITPAYPSMCATHNITESTKKVILQEFVRGVQITNDIFSNKKSWANLFEKNDFFFRYKFYLEITAYTRGSDEQHLKWSGLVESKVRLLVMKLEVLAGIKIAHPFTKPFESSYCCPTEDDYEMIQDKYGSHKTETALNALKLVTDENKEEESIKDAPKAYLSTMYIGLDFNIENKKEKVDIHIPCTEFVNLCRSFNEDYGDHKVFNLALRFVKGYDLPDEVFDENEKRPSKKSKRKNLDARHETVKRSKSDAASGDNINGTTAAVDVN
notes: Pap1 poly(A) polymerase, yeast; source: overexpressed in insect cells, purified as part of the polymerase module
B4: Pfs2 (recombinant, polymerase module) (natural protein, yeast)
chain: MDGHNQNQYQNQNQIQQSQQPPLKKYVTQRRSVDVSSPYINLYYNRRHGLPNLVVEPETSYTIDIMPPNAYRGRDRVINLPSKFTHLSSNKVKHVIPAIQWTPEGRRLVVATYSGEFSLWNASSFTFETLMQAHDSAVTTMKYSHDSDWMISGDADGMIKIWQPNFSMVKEIDAAHTESIRDMAFSSNDSKFVTCSDDNILKIWNFSNGKQERVLSGHHWDVKSCDWHPEMGLIASASKDNLVKLWDPRSGNCISSILKFKHTVLKTRFQPTKGNLLMAISKDKSCRVFDIRYSMKELMCVRDETDYMTLEWHPINESMFTLACYDGSLKHFDLLQNLNEPILTIPYAHDKCITSLSYNPVGHIFATAAKDRTIRFWTRARPIDPNAYDDPTYNNKKINGWFFGINNDINAVREKSEFGAAPPPPATLEPHALPNMNGFINKKPRQEIPGIDSNIKSSTLPGLSI
notes: Pfs2, yeast; ordered in the cryo-EM map: residues 27 to 411; source: overexpressed in insect cells, purified as part of the polymerase module

What all share (conditions): both partners purified
The target of assay [1] is B3. Briefly: cross-linking; cross-linking mass spectrometry of the polymerase module, to determine where Pap1 and Fip1 bind.
In assay [2] the target is B1. The assay is described as above.
In assay [3] the target is T1, Cft1 (recombinant, polymerase module) (yeast, UniProt Q06632 1-1357).
T1 construct: Cft1, yeast; ordered in the cryo-EM map: residues 1 to 1357 (several loops not visible); source: overexpressed in insect cells, purified as part of the polymerase module
T1 sequence: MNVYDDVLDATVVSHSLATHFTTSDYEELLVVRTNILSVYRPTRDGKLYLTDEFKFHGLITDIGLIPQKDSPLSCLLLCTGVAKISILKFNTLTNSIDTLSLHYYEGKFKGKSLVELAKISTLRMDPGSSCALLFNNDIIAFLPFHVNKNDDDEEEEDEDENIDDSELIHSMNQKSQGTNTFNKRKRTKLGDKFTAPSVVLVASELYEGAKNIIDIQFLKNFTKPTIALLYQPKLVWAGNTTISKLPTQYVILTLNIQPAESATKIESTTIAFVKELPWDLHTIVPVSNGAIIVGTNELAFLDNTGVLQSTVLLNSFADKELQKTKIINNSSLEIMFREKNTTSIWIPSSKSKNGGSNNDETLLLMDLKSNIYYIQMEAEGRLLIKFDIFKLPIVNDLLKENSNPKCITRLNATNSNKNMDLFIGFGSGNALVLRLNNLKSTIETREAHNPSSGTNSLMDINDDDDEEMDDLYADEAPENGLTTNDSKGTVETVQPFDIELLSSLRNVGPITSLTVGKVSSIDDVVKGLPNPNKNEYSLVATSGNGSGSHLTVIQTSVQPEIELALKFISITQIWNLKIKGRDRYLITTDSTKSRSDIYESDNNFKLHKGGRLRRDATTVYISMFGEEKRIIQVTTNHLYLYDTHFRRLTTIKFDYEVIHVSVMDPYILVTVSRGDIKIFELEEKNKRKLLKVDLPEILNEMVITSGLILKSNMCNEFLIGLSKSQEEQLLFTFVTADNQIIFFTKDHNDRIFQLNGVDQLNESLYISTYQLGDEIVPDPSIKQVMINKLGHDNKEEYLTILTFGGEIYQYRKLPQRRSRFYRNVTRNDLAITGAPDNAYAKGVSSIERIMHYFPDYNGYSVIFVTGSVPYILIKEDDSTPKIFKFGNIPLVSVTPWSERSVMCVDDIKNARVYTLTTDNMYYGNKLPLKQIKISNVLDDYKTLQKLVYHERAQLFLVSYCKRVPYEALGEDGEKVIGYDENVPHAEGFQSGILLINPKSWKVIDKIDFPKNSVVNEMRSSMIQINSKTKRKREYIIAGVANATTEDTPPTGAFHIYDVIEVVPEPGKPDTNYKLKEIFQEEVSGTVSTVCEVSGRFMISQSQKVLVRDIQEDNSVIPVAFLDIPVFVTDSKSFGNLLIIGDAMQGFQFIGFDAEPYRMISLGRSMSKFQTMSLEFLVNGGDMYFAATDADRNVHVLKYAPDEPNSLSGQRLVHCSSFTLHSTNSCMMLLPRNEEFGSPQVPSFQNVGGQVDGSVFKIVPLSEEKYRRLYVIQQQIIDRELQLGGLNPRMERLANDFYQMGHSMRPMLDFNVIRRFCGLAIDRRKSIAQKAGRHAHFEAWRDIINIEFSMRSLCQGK
The experiment in a line: cryo-EM structure; recombinant four-subunit complex (Cft1, Pfs2, Yth1, Fip1) overexpressed in insect cells; overall resolution 3.5 Å.

Assay [4] deals with B4. The assay is described as above.
Assay [5] deals with T1, Cft1 (recombinant, polymerase module). The experiment in a line: cross-linking; cross-linking mass spectrometry of the polymerase module, to determine where Pap1 and Fip1 bind.

For B1, in assay [1], the binding result is given as “binds”.

For B2, the binding result in assay [2], in assay [1], in assay [3] and in assay [4] was “binds” throughout.

As for B3, the binding result in assay [5] is recorded as “binds”.

B4: the binding result in assay [1] and in assay [3] was “binds” each time.
